Results as given in patent US20260234255A1 (Genmab, published 2026).

T1: human CD30 (human, UniProt P28908 19-595)
T1 construct: The same molecule is used for CD30 on HL/ALCL/NHL cell lines; also called huCD30; TNFRSF8
T1 sequence: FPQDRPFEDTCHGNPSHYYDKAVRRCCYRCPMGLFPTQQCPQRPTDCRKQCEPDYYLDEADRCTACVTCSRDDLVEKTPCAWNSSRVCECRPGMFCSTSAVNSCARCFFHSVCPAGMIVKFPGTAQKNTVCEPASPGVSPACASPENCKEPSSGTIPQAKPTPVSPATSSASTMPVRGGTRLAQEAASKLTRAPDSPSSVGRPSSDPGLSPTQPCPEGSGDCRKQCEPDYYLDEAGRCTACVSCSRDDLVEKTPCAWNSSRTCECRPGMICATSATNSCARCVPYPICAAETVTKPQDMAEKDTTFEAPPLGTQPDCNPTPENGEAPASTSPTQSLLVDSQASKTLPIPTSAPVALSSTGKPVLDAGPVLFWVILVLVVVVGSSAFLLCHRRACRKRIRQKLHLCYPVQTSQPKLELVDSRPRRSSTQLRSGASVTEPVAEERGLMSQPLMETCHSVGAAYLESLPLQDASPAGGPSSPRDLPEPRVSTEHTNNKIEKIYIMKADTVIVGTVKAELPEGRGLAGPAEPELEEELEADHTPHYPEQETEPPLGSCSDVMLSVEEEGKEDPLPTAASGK


Assays:
human CD30 [1] = biological target: T1, human CD30; assay: flow cytometry, DEL cells, experiment N = 2
human CD30 [2] = biological target: T1, human CD30; assay: flow cytometry, L-428 cells, experiment N = 2
cynomolgus monkey CD3 = biological target: T2, cynomolgus monkey CD3 (cynomolgus monkey, UniProt Q95LI5 22-198); assay: flow cytometry, cynomolgus monkey T cells (PBMCs)
T2 construct: CD3 endogenously expressed on T cells within cynomolgus monkey PBMCs
T2 sequence (Q95LI5 22-198): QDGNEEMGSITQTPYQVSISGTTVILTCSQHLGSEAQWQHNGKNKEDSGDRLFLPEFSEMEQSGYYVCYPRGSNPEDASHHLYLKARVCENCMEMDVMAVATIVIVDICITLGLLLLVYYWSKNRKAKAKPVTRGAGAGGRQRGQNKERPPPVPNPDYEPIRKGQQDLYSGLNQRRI
Description: Cynomolgus monkey PBMCs (Tebu-Bio, The Netherlands; cat. no. PBMCMFA-10) or purified human T cells were plated in polystyrene 96-well round-bottom plates. T cells were derived from human donor buffy coats (Sanquin, Amsterdam, The Netherlands) and isolated using the RosetteSep human T cell enrichment cocktail (Stemcell Technologies, France, cat. no. 15061) according to manufacturer's instructions. […] After washing twice in staining buffer, cells were incubated in 50 μL secondary R-PE-conjugated goat-anti-human IgG antibody at 4° C. for 30 min (1:400 dilution). After washing twice in staining buffer, T cells were stained for T-cell markers CD3 (1:100; Miltenyi biotec, clone 10D12, conjugated to APC), CD4 (1:50; eBioscience, clone OKT4, conjugated to APC-Cy7), CD8 (1:100; Biolegend, clone RPA-T8, conjugated to AF700) and T-cell activation markers CD69 (1:50; BD Biosciences, clone AB2439, conjugated to FITC), CD25 (1:50; eBioscience, clone BC96, conjugated to PE-Cy7) and CD279/PD1 (1:50; BD Biosciences, clone AEH12.2H7, conjugated to BV605). Single stained samples with Ultracomp beads (5 μL; Invitrogen, cat. no. 01-2222-42) were used for compensation adjustments of the flow cytometer. After 30 min of incubation at 4° C., cells were washed twice with staining buffer, resuspended in 100 μL staining buffer and analyzed using a FACS Fortessa (BD Biosciences). Data were processed using FlowJo (BD Biosciences).

human CD30 [3] = biological target: T1, human CD30; assay: flow cytometry, KM-H2 cells (HL), range of 3 tests
Description: (§1) Cells (3×10⁴ cells/well) were incubated in polystyrene 96-well round-bottom plates (Greiner bio-one, cat. no. 650180) with serial dilutions of antibodies (range 0.0046 to 10 μg/mL in 3-fold dilution steps) in 50 μL staining buffer at 4° C. for 30 min. After washing twice in staining buffer, cells were incubated with 50 μL secondary antibody at 4° C. for 30 min. […] Next, cells were washed twice in staining buffer, resuspended in 100 μL staining buffer supplemented with TO-PRO-3 iodide (Thermo Fisher Scientific; cat. no. T3605; 1:8000 dilution) and analyzed on a FACSCelesta flow cytometer (BD Biosciences, USA). Live cells were gated based on FSC/SSC and absence of TOPRO-3 staining. Binding curves were analyzed by non-linear regression of log-transformed data (sigmoidal dose-response with variable slope, four parameters) using GraphPad Prism V7.02 software (GraphPad Software, San Diego, CA, USA).

human CD30 [4] = biological target: T1, human CD30; assay: flow cytometry, L-428 cells (HL), range of 2 tests
Description: as §1

human CD30 [5] = biological target: T1, human CD30; assay: flow cytometry, HDLM-2 cells (HL), range of 3 tests
Description: as §1

human CD30 [6] = biological target: T1, human CD30; assay: flow cytometry, DEL cells (ALCL), average of 3 tests
Description: as §1

Row | Binder | EC50 (human CD30 [1]) [µg/mL] | EC50 (human CD30 [2]) [µg/mL] | EC50 (read off the curve) (cynomolgus monkey CD3) [µg/mL] | EC50 (human CD30 [3]) [µg/mL] | EC50 (human CD30 [4]) [µg/mL] | EC50 (human CD30 [5]) [µg/mL] | EC50 (human CD30 [6]) [µg/mL]
1 | bsG1-huCD3-FEALxCD30-MDX060-FEAR (bispecific antibody, human IgG1, kappa, lambda, also called bsG1-huCD3xCD30-MDX060) heavy 1: not shown light 1: not shown heavy 2: QVQLQQWGAGLLKPSETLSLTCAVYGGSFSAYYWSWIRQPPGKGLEWIGDINHGGGTNYNPSLKSRVTISVDTSKNQFSLKLNSVTAADTAVYYCASLTAYWGQGSLVTVSSASTKGPSVFPLAPSSKSTSGGTAALGCLVKDYFPEPVTVSWNSGALTSGVHTFPAVLQSSGLYSLSSVVTVPSSSLGTQTYICNVNHKPSNTKVDKRVEPKSCDKTHTCPPCPAPEFEGGPSVFLFPPKPKDTLMISRTPEVTCVVVAVSHEDPEVKFNWYVDGVEVHNAKTKPREEQYNSTYRVVSVLTVLHQDWLNGKEYKCKVSNKALPAPIEKTISKAKGQPREPQVYTLPPSREEMTKNQVSLTCLVKGFYPSDIAVEWESNGQPENNYKTTPPVLDSDGSFFLYSRLTVDKSRWQQGNVFSCSVMHEALHNHYTQKSLSLSPG light 2: DIQMTQSPTSLSASVGDRVTITCRASQGISSWLTWYQQKPEKAPKSLIYAASSLQSGVPSRFSGSGSGTDFTLTISSLQPEDFATYYCQQYDSYPITFGQGTRLEIKRTVAAPSVFIFPPSDEQLKSGTASVVCLLNNFYPREAKVQWKVDNALQSGNSQESVTEQDSKDSTYSLSSTLTLSKADYEKHKVYACEVTHQGLSSPVTKSFNRGEC | 0.0568 | 0.0705 | ~0.4 |  |  |  | 
2 | bsG1-huCD3-FEALxCD30-MDX060-FERR (bispecific antibody, human IgG1, kappa, lambda, Bispecific IgG1 made by controlled Fab-arm exchange; also called bsIgG1-huCD3-FEALxCD30-MDX060-FERR; bsG1-huCD3×CD30-MDX060) heavy 1: not shown light 1: not shown heavy 2: QVQLQQWGAGLLKPSETLSLTCAVYGGSFSAYYWSWIRQPPGKGLEWIGDINHGGGTNYNPSLKSRVTISVDTSKNQFSLKLNSVTAADTAVYYCASLTAYWGQGSLVTVSSASTKGPSVFPLAPSSKSTSGGTAALGCLVKDYFPEPVTVSWNSGALTSGVHTFPAVLQSSGLYSLSSVVTVPSSSLGTQTYICNVNHKPSNTKVDKRVEPKSCDKTHTCPPCPAPEFERGPSVFLFPPKPKDTLMISRTPEVTCVVVDVSHEDPEVKFNWYVDGVEVHNAKTKPREEQYNSTYRVVSVLTVLHQDWLNGKEYKCKVSNKALPAPIEKTISKAKGQPREPQVYTLPPSREEMTKNQVSLTCLVKGFYPSDIAVEWESNGQPENNYKTTPPVLDSDGSFFLYSRLTVDKSRWQQGNVFSCSVMHEALHNHYTQKSLSLSPG light 2: DIQMTQSPTSLSASVGDRVTITCRASQGISSWLTWYQQKPEKAPKSLIYAASSLQSGVPSRFSGSGSGTDFTLTISSLQPEDFATYYCQQYDSYPITFGQGTRLEIKRTVAAPSVFIFPPSDEQLKSGTASVVCLLNNFYPREAKVQWKVDNALQSGNSQESVTEQDSKDSTYSLSSTLTLSKADYEKHKVYACEVTHQGLSSPVTKSFNRGEC |  |  |  | 0.141 to 0.182 | 0.174 | 0.125 to 0.221 | 0.201
